In article PMC8477192, “An ionic lock and a hydrophobic zipper mediate the coupling between an insect pheromone receptor BmOR3 and downstream effectors” (The Journal of Biological Chemistry, 2021):
Each block holds one molecule with its values, some of them ahead of it.

Key:
[1] = biological target: Rluc-BmArr; experiment: intermolecular BRET; conditions: read off a plot
[2] = biological target: Rluc-BmOrco; experiment: intermolecular BRET; conditions: HEK293 cells; bombykal-induced; parent: est. 0.053; read off a plot
[3] = system: BmOR3 and BmOrco; experiment: CalfluxVTN Ca2+ assay (BRET-based calcium sensor); format: cell-based, Bombyx mori; conditions: HEK293 cells; pretreatment 100 ng/ml
Protocol: HEK293 cells were cotransfected with plasmids encoding WT BmOR3 and BmOrco or their mutants, or AT1R together with CalfluxVTN probe. 24 h after transfection, cells were redistributed into 96-well flat-bottomed microplates. After another 24 h, cells were incubated with conventional buffer with Ca^2+ (135 mM NaCl, 5 mM KCl, 1 mM CaCl2, 5 mM D-glucose, 10 mM Hepes; pH = 7.4) or with Ca^2+-free buffer (135 mM NaCl, 5 mM KCl, 1 mM EGTA, 5 mM D-glucose, 10 mM Hepes; pH = 7.4), and stimulated with different concentrations of Bombykal (or AngII). The BRET ratio between Venus and Nluc was measured before (baseline) and after the addition of the Nluc substrate furimazine (5 μM) using a Mithras LB 940 multimode reader (Berthold Technologies). The BRET signal was calculated as ratio of emission of Venus (530 nm) to Nluc (460 nm). The baseline value was subtracted from the bombykal-stimulated BRET signal to obtain the ΔBRET value.

[4] = biological target: T1, BmOR3–BmOrco (Bombyx mori, UniProt Q5FBE0); experiment: BmOR3–BmOrco intermolecular BRET assay; format: cell-based; conditions: HEK293 cells; pretreatment 100 ng/ml
T1 sequence (Q5FBE0 1-439): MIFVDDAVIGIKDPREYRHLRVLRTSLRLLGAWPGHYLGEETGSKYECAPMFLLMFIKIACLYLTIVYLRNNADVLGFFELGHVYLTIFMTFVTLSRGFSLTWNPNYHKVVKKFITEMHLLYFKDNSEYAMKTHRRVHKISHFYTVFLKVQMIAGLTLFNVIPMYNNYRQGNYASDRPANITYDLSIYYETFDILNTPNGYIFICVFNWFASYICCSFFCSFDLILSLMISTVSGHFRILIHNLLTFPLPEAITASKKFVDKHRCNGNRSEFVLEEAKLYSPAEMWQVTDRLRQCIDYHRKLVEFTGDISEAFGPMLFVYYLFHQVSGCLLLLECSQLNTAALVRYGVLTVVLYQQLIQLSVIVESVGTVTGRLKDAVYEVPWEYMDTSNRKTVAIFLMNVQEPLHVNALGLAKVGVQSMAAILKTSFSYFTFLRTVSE
T1 sequence (Q7YT34 1-472 partner): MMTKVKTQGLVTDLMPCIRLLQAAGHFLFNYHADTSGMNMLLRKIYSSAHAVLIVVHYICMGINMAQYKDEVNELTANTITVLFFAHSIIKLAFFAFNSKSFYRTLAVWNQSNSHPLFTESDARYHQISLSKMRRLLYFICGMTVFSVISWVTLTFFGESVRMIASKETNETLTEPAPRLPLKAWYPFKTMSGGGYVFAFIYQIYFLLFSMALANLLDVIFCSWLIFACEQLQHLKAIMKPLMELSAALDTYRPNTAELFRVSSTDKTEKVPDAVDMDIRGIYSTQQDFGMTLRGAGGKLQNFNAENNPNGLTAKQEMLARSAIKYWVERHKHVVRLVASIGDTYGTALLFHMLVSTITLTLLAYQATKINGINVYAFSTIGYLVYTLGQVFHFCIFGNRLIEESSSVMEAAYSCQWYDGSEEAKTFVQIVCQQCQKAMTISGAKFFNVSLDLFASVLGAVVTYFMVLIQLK
Protocol: HEK293 cells were cotransfected with the N-terminal Rluc-tagged WT BmOR3 together with N-terminal YFP-fused BmOrco plasmids or their mutants. Twenty-four hours after transfection, cells were distributed into a 96-well microplate. After another 24 h, the cells were stimulated with different concentrations of bombykal for 5 min. BRET between RLuc and YFP was measured using a Mithras LB 940 multimode reader after the addition of the RLuc substrate coelenterazine h (5 μM). The BRET signal was calculated as the ratio of emission of YFP (530 nm) to RLuc (485 nm). For the saturation BRET between Rluc-BmOrco and YFP-BmOR3, HEK293 cells were transfected with a fixed amount of Rluc-BmOrco and increasing amounts of YFP-BmOR3. The BRET signal between RLuc and YFP was directly measured after the addition of the substrate coelenterazine h (5 μM).

[5] = biological target: T2, BmOR3 (Bombyx mori, UniProt Q5FBE0); experiment: Arrestin-kinase BRET assay; format: cell-based; conditions: HEK293 cells transfected with BmOR3; pretreatment
Protocol: Twenty-four hours after transfection, cells were distributed into a 96-well microplate. After another 24 h, the cells were stimulated with 1 μM bombykal (for BmOR3-transfected cells) or 1 μM AngII for 10 min (for AT1R-transfected cells). BRET between RLuc and YFP was measured using a Mithras LB 940 multimode reader after the addition of the RLuc substrate coelenterazine h (5 μM). The BRET signal was calculated as the ratio of emission of YFP (530 nm) to RLuc (485 nm).

[6] = biological target: T2, BmOR3; experiment: Arrestin recruitment BRET assay; format: cell-based; conditions: HEK293 cells; pretreatment
Protocol: HEK293 cells were transiently cotransfected with the N-terminal YFP-tagged BmOR3 together with N-terminal Rluc-fused β-arrestin-1, β-arrestin-2, or BmArr plasmids. Twenty-four hours after transfection, cells were distributed into a 96-well microplate and incubated for additional 24 h. The cells were stimulated with varying concentrations of bombykal for 10 min, and the BRET signal between YFP (530 nm) and Rluc (485 nm) was measured after the addition of the Rluc substrate coelenterazine h (5 μM) using a Mithras LB 940 multimode reader (Berthold Technologies). The BRET signal was calculated as the ratio of emission of YFP to Rluc.

[7] = biological target: T3, YFP-BmOR3 (Bombyx mori, UniProt Q5FBE0 1-439); experiment: FRET or BRET; G protein recruitment BRET in living HEK293 cells; YFP-BmOR3 with Gi-Rluc; increasing bombykal for 2 min; net BRET after subtracting cells with Gi-Rluc only; net BRET also without bombykal; BmOrco coexpression without significant effect; conditions: partners not purified
T3 construct: BmOR3, pheromone (bombykal) receptor of Bombyx mori; also called N-terminal YFP-tagged BmOR3; YFP-WT-BmOR3; source: HEK293, transfected, in living cells; not shown: YFP, N-terminal, kept
T3 sequence (looked up): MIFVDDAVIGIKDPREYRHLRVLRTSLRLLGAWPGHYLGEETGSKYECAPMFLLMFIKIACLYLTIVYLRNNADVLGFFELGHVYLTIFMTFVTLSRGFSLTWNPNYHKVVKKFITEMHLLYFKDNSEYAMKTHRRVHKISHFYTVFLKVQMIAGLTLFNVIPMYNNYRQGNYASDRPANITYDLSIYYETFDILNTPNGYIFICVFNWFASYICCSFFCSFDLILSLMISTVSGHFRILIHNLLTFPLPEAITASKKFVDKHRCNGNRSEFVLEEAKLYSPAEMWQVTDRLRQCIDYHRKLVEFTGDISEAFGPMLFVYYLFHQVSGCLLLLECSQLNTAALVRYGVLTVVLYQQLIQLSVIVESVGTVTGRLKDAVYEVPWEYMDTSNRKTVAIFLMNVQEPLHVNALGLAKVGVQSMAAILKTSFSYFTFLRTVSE

[8] = biological target: T3, YFP-BmOR3; experiment: FRET or BRET; arrestin recruitment BRET in living HEK293 cells; YFP-BmOR3 (WT or mutant) with Rluc-fused arrestin; bombykal for 10 min; pertussis toxin without effect; enhanced by BmOrco coexpression; conditions: partners not purified
[9] = bombykal-stimulated, parent: est. 0.012
[10] = HEK293 cells, bombykal, parent: est. 0.612
[11] = HEK293 cells, vehicle, parent: est. 0.592

Molecule: YFP-BmOR3 (from UniProt Q5FBE0) S26A
response [1, 9]: 0.008 ΔBRET

Molecule: YFP-BmOR3 (from UniProt Q5FBE0) T42A
response [1, 9]: 0.0086 ΔBRET

Molecule: YFP-BmOR3 (from UniProt Q5FBE0) W103A
response [1, 10]: 0.605 BRET Ratio
response [1, 11]: 0.594 BRET Ratio

Molecule: pertussis toxin [PTX]
effect of pretreatment on bombykal-induced complex-regulated calcium influx [3]: no significant effects
effect of pretreatment on bombykal-induced BmOR3–BmOrco complex formation [4]: no significant effects
effect of pretreatment on bombykal-induced association of β-arrestin with ERK, SRC, and AKT [5]: not significantly affected
effect of pretreatment on bombykal-induced β-arrestin recruitment to BmOR3 [6]: not affected

B2: Gi3-Rluc (natural protein, UniProt P08754 1-354, looked up)
chain: MGCTLSAEDKAAVERSKMIDRNLREDGEKAAKEVKLLLLGAGESGKSTIVKQMKIIHEDGYSEDECKQYKVVVYSNTIQSIIAIIRAMGRLKIDFGEAARADDARQLFVLAGSAEEGVMTPELAGVIKRLWRDGGVQACFSRSREYQLNDSASYYLNDLDRISQSNYIPTQQDVLRTRVKTTGIVETHFTFKDLYFKMFDVGGQRSERKKWIHCFEGVTAIIFCVALSDYDLVLAEDEEMNRMHESMKLFDSICNNKWFTETSIILFLNKKDLFEEKIKRSPLTICYPEYTGSNTYEEAAAYIQCQFEDLNRRKDTKEIYTHFTCATDTKNVQFVFDAVTDVIIKNNLKECGLY
notes: G protein alpha subunit Gi3 (Gαi3); also called Gαi-Rluc; Rluc-tagged Gi protein; source: HEK293, transfected, in living cells
EC50 of bombykal for the BRET increase [7]: 10.6 ± 2.06 nM

B3: N-terminal Rluc-fused β-arrestin-1 (natural protein, UniProt P49407 1-418, looked up)
chain: MGDKGTRVFKKASPNGKLTVYLGKRDFVDHIDLVDPVDGVVLVDPEYLKERRVYVTLTCAFRYGREDLDVLGLTFRKDLFVANVQSFPPAPEDKKPLTRLQERLIKKLGEHAYPFTFEIPPNLPCSVTLQPGPEDTGKACGVDYEVKAFCAENLEEKIHKRNSVRLVIRKVQYAPERPGPQPTAETTRQFLMSDKPLHLEASLDKEIYYHGEPISVNVHVTNNTNKTVKKIKISVRQYADICLFNTAQYKCPVAMEEADDTVAPSSTFCKVYTLTPFLANNREKRGLALDGKLKHEDTNLASSTLLREGANREILGIIVSYKVKVKLVVSRGGLLGDLASSDVAVELPFTLMHPKPKEEPPHREVPENETPVDTNLIELDTNDDDIVFEDFARQRLKGMKDDKEEEEDGTGSPQLNNR
notes: β-arrestin-1; also called βarr1; source: HEK293, transfected, in living cells; not shown: Rluc, N-terminal, kept
EC50 of bombykal for the BRET increase (quantity not given) [8]: 91.1 ± 1.61 nM

Other lines, results leading:

response [1, 9]: 0.0082 ΔBRET
Molecule: YFP-BmOR3 (from UniProt Q5FBE0) T25A

response [1, 9]: 0.0024 ΔBRET
Molecule: YFP-BmOR3 (from UniProt Q5FBE0) T25A; S26A; T42A

response [2]: 0.041 ΔBRET
Molecule: YFP-BmOR3 (from UniProt Q5FBE0) V394A; L398A

response [1, 10]: 0.605 BRET Ratio
response [1, 11]: 0.595 BRET Ratio
Molecule: YFP-BmOR3 (from UniProt Q5FBE0) W33A

response [1, 10]: 0.604 BRET Ratio
response [1, 11]: 0.592 BRET Ratio
Molecule: YFP-BmOR3 (from UniProt Q5FBE0) W209A

response [1, 10]: 0.605 BRET Ratio
response [1, 11]: 0.593 BRET Ratio
Molecule: YFP-BmOR3 (from UniProt Q5FBE0) W286A

response [1, 10]: 0.603 BRET Ratio
response [1, 11]: 0.59 BRET Ratio
Molecule: YFP-BmOR3 (from UniProt Q5FBE0) W383A

EC50 of bombykal for the BRET increase [7]: 22 ± 3.22 nM
B1: Gi2-Rluc (natural protein, UniProt P04899 1-355, looked up)
chain: MGCTVSAEDKAAAERSKMIDKNLREDGEKAAREVKLLLLGAGESGKSTIVKQMKIIHEDGYSEEECRQYRAVVYSNTIQSIMAIVKAMGNLQIDFADPSRADDARQLFALSCTAEEQGVLPDDLSGVIRRLWADHGVQACFGRSREYQLNDSAAYYLNDLERIAQSDYIPTQQDVLRTRVKTTGIVETHFTFKDLHFKMFDVGGQRSERKKWIHCFEGVTAIIFCVALSAYDLVLAEDEEMNRMHESMKLFDSICNNKWFTDTSIILFLNKKDLFEEKITHSPLTICFPEYTGANKYDEAASYIQSKFEDLNKRKDTKEIYTHFTCATDTKNVQFVFDAVTDVIIKNNLKDCGLF
notes: G protein alpha subunit Gi2 (Gαi2); also called Gαi-Rluc; Rluc-tagged Gi protein; source: HEK293, transfected, in living cells
